Data: doi:10.64898/2025.12.11.692727, “Nucleophagy removes cytotoxic trapped PARP1” (bioRxiv, 2025)

Biological target: T1, PARP1, recombinant, full length (printed as GFP-PARP1 in the results) (UniProt P09874 1-1014)
T1 construct: Full-length PARP1 cloned into the NcoI and BamHI sites of the pNIC28 vector; The results call the purified protein GFP-PARP1; the methods describe full-length PARP1 in pNIC28 without naming GFP; source: E. coli expression system, purified
Experiment: pull-down; in vitro; PARP1 (2.5 µM) loaded on PARP1-trap beads, TEX264 (2.5 µM) added, 2 hrs at 4°C; 50 mM HEPES pH 7.4, 500 mM NaCl, 0.01% Triton X-100, 1 mM TCEP; stringent washes with 0.1% Triton X-100; Western blot
Details: both partners purified

T1 sequence (P09874 whole entry): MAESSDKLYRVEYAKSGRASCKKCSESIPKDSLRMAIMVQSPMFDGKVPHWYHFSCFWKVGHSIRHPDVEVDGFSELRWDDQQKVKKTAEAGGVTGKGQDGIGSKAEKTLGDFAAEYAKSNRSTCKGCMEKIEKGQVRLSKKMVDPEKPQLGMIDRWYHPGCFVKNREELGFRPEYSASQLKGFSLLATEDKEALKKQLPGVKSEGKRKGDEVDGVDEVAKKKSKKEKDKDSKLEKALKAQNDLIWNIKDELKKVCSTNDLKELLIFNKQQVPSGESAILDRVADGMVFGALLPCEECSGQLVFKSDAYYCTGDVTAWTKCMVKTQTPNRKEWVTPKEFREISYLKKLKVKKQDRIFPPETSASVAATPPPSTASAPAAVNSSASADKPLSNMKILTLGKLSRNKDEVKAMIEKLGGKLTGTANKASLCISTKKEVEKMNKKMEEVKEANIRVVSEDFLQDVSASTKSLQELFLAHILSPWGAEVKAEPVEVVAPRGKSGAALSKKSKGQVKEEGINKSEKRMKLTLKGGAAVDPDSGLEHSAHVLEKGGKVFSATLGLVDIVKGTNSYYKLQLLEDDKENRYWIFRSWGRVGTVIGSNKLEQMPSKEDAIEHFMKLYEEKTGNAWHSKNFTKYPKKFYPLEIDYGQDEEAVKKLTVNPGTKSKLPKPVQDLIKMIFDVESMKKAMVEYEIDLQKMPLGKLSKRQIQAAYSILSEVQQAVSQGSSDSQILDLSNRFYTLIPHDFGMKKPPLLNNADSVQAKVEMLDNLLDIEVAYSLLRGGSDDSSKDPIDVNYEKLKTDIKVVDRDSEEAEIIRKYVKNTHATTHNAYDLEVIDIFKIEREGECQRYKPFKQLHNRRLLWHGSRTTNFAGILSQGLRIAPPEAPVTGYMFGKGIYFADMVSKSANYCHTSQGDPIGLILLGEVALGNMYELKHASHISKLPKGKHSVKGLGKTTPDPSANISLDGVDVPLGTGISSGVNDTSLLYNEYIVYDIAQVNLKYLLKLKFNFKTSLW

binding result: binds
B1: TEX264 C-terminal half (186-313), recombinant (domain or fragment, UniProt Q9Y6I9 186-313, looked up)
chain: RQGDFYVPEMKETEWKWRGLVEAIDTQVDGTGADTMSDTSSVSLEVSPGSRETSAATLSPGASSRGWDDGDTRSEHSYSESGASGSSFEELDLEGEGPLGESRLDPGTEPLGTTKWLWEPTAPEKGKE
notes: The range 186-313 of the methods is tied to the 'C-terminal half' of the results by its position; source: E. coli expression system, purified
